Results as given in patent US10202593B2, “Evolved sortases and uses thereof” (President and Fellows of Harvard College, priority 2013, dated 2019).
Like-named read-outs stand apart in the source and are kept apart here.

B1: SrtA: wild-type Staphylococcus aureus sortase A (SEQ ID NO: 1) (protein)
chain: MKKWTNRLMTIAGVVLILVAAYLFAKPHIDNYLHDKDKDEKIEQYDKNVKEQASKDKKQQAKPQIPKDKSKVAGYIEIPDADIKEPVYPGPATPEQLNRGVSFAEENESLDDQNISIAGHTFIDRPNYQFTNLKAAKKGSMVYFKVGNETRKYKMTSIRDVKPTDVEVLDEQKGKDKQLTLITCDDYNEKTGVWEKRKIFVATEVK
modifications: S. aureus
B2: eSrtA(4S-9) V182I (protein)
chain: QAKPQIPKDKSKVAGYIEIPDADIKEPVYPGPATREQLDRGVCFVEENESLDDQNISITGHTAIDRPNYQFTNLRAAKKGSMVYLKVGNETRKYKMTSIRNVKPTAVEVLDEQKGKDKQLTLITCDDYNFETGVWETRKIFVATEVK
B3: eSrtA(2A-9) H104A (protein)
chain: QAKPQIPKDKSKVAGYIEIPDADIKEPVYPGPATREQLNRGVCFADENESLDDQNISIAGHTFIDRPNYQFTNLKAAKPGSMVYFKVGNETRIYKMTSIRKVHPNAVEVLDEQEGKDKQLTLVTCDDYNEETGVWESRKIFVATEVK
B4: eSrtA(2A-9) V182I (protein)
chain: QAKPQIPKDKSKVAGYIEIPDADIKEPVYPGPATREQLNRGVCFHDENESLDDQNISIAGHTFIDRPNYQFTNLKAAKPGSMVYFKVGNETRIYKMTSIRKVHPNAVEVLDEQEGKDKQLTLITCDDYNEETGVWESRKIFVATEVK
B5: eSrtA(2A-4): 5mut + A104H K162R V168I I182V (protein)
chain: QAKPQIPKDKSKVAGYIEIPDADIKEPVYPGPATREQLNRGVSFHEENESLDDQNISIAGHTFIDRPNYQFTNLKAAKKGSMVYFKVGNETRKYKMTSIRNVRPTAVEILDEQKGKDKQLTLVTCDDYNEETGVWETRKIFVATEVK
B6: 2A.6B: 5mut + R99K A104H K138V D160K* K162R I182V (protein)
chain: QAKPQIPKDKSKVAGYIEIPDADIKEPVYPGPATREQLNKGVSFHEENESLDDQNISIAGHTFIDRPNYQFTNLKAAKVGSMVYFKVGNETRKYKMTSIRKVRPTAVEVLDEQKGKDKQLTLVTCDDYNEETGVWETRKIFVATEVK
B7: eSrtA(2A-5): 5mut + R99H A104H K138I K162R I182V (protein)
chain: QAKPQIPKDKSKVAGYIEIPDADIKEPVYPGPATREQLNHGVSFHEENESLDDQNISIAGHTFIDRPNYQFTNLKAAKIGSMVYFKVGNETRKYKMTSIRNVRPTAVEVLDEQKGKDKQLTLVTCDDYNEETGVWETRKIFVATEVK
B8: 2A.6C: 5mut + A104H K138P K152I D160K* K162R I182V (protein)
chain: QAKPQIPKDKSKVAGYIEIPDADIKEPVYPGPATREQLNRGVSFHEENESLDDQNISIAGHTFIDRPNYQFTNLKAAKPGSMVYFKVGNETRIYKMTSIRKVRPTAVEVLDEQKGKDKQLTLVTCDDYNEETGVWETRKIFVATEVK

Columns and labels:
Assay type in all cases: biochemical
[1] = test system: LPETG (Abz-LPETGK(Dnp)-CONH2); assay: In vitro sortase kinetics HPLC assay, LPETG substrate
Method: (§1) See below for details on sortase expression and purification, and on the synthesis of Abz-LPETGK(Dnp)-CONH2 (SEQ ID NO: 19). […] Reactions were initiated with the addition of enzyme and incubated at 22.5° C. for 3 to 20 minutes before quenching with 0.5 volumes of 1 M HCl. Five to ten nmol of peptide from the quenched reactions were injected onto an analytical reverse-phase Eclipse XDB-C18 HPLC column (4.6×150 mm, 5 μm, Agilent Technologies) and chromatographed using a gradient of 10 to 65% acetonitrile with 0.1% TFA in 0.1% aqueous TFA over 13 minutes. Retention times under these conditions for the Abz-LPETGK(Dnp)-CONH2 (SEQ ID NO: 19) substrate, the released GKDnp peptide, and the Abz-LPETGGG-COOH (SEQ ID NO: 20) product were 12.8, 10.4, and 9.1 min, respectively. To calculate the percent conversion, the ratio of the integrated areas of the Abz-LPETGGG-COOH (SEQ ID NO: 20) and Abz-LPETGK(Dnp)-CONH2 (SEQ ID NO: 19) peptide Abs220 peaks was compared to a standard curve generated by mixing the product and starting peptide in known ratios. To determine […] and Km, reaction rates were fit to the Michaelis-Menten equation using OriginPro 7.0 software. All kinetics values reported represent the average of at least three measurements. Percent conversion was also calculated by using the ratio of the integrated areas of the GK(Dnp)-CONH2 and Abz-LPETGK(Dnp)-CONH2 peptide Abs355 peaks were compared directly (Example 5). To determine kcat and Km, LPETG, reaction rates were fit to the Michaelis-Menten equation using Microsoft Excel using the Solver add-in. To determine Km,GGG and KH, reaction rates were fit to the modified Michaelis-Menten, for which KH is as defined when KH<<Km,GGG.
(§2) Assays to determine eSrtA, eSrtA(2A-9) and eSrtA(4S-9) specificity were performed by preparing 10 μM stocks of Abz-LXEXGK(Dnp) (SEQ ID NO: 75) peptides in 300 mM Tris pH 7.5, 150 mM NaCl, 5 mM CaCl2, 5% v/v DMSO, and 100 mM Gly-Gly-Gly-COOH (GGG). Reactions were performed by adding eSrtA(2A-9) to a final concentration of 450 nM, eSrtA(4S-9) to a final concentration of 115 nM or eSrtA to a final concentration of 47.5 nM and a final volume of 100 μL, then incubating at 22.5° C. for 15 minutes. Reactions were quenched by the addition of 0.2 volumes of 5 M HCl, then were injected onto an analytical reverse-phase Eclipse XDB-C18 HPLC column (4.6×150 mm, 5 μm, Agilent Technologies) and chromatographed using a gradient of 10 to 65% acetonitrile with 0.1% TFA in 0.1% aqueous TFA over 13 minutes. Retention times under these conditions for the Abz-LPETGK(Dnp)-CONH2 (SEQ ID NO: 19) substrate, the released GKDnp peptide, and the Abz-LPETGGG-COOH (SEQ ID NO: 20) product were 12.8, 10.4, and 9.1 min, respectively, while the remaining Abz-LXEXGK(Dnp)-CONH2 (SEQ ID NO: 74) substrates varied in retention time between 9 and 13 minutes. To calculate the percent conversion, the ratio of the integrated areas of the GK(Dnp)-CONH2 and Abz-LPETGK(Dnp)-CONH2 (SEQ ID NO: 19) peptide Abs355 peaks were compared directly. Subsequent determination of kcat/Km and KH were performed as described for in vitro SrtA characterization.
(§3) In each case, rate constants were determined by measuring enzyme velocity at eight different substrate concentrations by HPLC assay, then fit using nonlinear regression to the Michaelis-Menten equation, yielding kcat and Km. KH was calculated by measuring enzyme velocity at 1 mM target substrate and eight different GGG concentrations by HPLC assay, then fitting the resulting curves using nonlinear regression to the modified Michaelis-Menten equation.

[2] = test system: LPESG (Abz-LPESGK(Dnp)-CONH2); assay: In vitro sortase kinetics HPLC assay, LPESG substrate; conditions: reversion of V182
Method: as §1, §2, §3

[3] = test system: LAETG (Abz-LAETGK(Dnp)-CONH2); assay: In vitro sortase kinetics HPLC assay, LAETG substrate; conditions: for increase in kcat/Km for LAETG as compared to LPETG / increased affinity (KM) for the LAETG substrate as compared to the LPETG substrate: FIG. 1; for specificity (relative cat. Efficiency, fold): ratio of kcat/Km between 2A (LAETG) and wt (LPETG) substrates, favoured over disfavoured; for kcat, 1 mM LxExG (Hz) / kHydrolysis (Hz): GGG varied; for kHydrolysis (Hz): 1 mM
Method: as §1, §2, §3

[4] = substrate wt (LPETG), read-out: Km, LxExG
[5] = substrate 2A (LAETG), read-out: Km, LxExG
[6] = 1 mM 2A (LAETG) substrate, read-out: Km, GGG

Row | Molecule | kcat, 10 mM GGG (Hz) ([1]; substrate wt (LPETG)) | Km [1, 4] [µM] | specificity (relative cat. Efficiency, fold) [3] [fold] | kcat, 10 mM GGG (Hz) ([3]; substrate 2A (LAETG)) | Km [3, 5] [µM] | Khydrolysis ([3]; 1 mM 2A (LAETG) substrate) [µM] | kcat, 1 mM LxExG (Hz) ([3]; 1 mM 2A (LAETG) substrate) | Km [3, 6] [µM] | kL/KL/KH ([3]; substrate 2A (LAETG)) | kHydrolysis (Hz) ([3]; substrate 2A (LAETG)) | also measured
1 | B1 | 1.221 | 5180 |  |  |  |  |  |  |  |  | KH ([1]; 1 mM LPETG): 14.3 ± 0.8 µM; KN ([1]; 1 mM LPETG, eight GGG concentrations): 14.3 ± 0.8 µM; Km ([1]; 1 mM LPETG, read-out: Km,GGG): 211 ± 8 µM; Khydrolysis ([1]; 1 mM wt (LPETG) substrate): 28.38 µM; kcat, 1 mM LxExG (Hz) ([1]; 1 mM wt (LPETG) substrate, GGG varied): 0.1731 Hz; Km ([1]; 1 mM wt (LPETG) substrate, read-out: Km, GGG): 291 µM; KH,LPETG ([1]; LPETG substrate): 14.3 ± 0.8 µM; Kcat (Hz) ([1]; Sub LPETG, 100 mM GGG): 1.5 ± 0.2 Hz; Km ([1]; Sub LPETG, 100 mM GGG, read-out: Km): 7600 ± 500 µM; Rel. Activity ([1]; Sub LPETG, kcat/Km of the enzyme's preferred substrate relative to kcat/Km on this substrate): 1; Kcat (Hz) ([1]; Table 2, Sub LPETG): 1.5 ± 0.2 Hz; Km ([1]; Table 2, Sub LPETG, read-out: Km): 7600 ± 500 µM; kL/KL/KH ([1]; substrate wt (LPETG)): 8.30E+06; kHydrolysis (Hz) ([1]; substrate wt (LPETG), 1 mM, GGG varied): 0.01657 Hz
2 | B2 |  |  |  |  |  |  |  |  |  |  | selectivity and overall activity [2]: preserved selectivity but decreased overall activity
3 | B3 |  |  |  |  |  |  |  |  |  |  | preference for LPETG over LAETG ([3]; ratio of kcat/KM): 60 fold
4 | B4 |  |  |  |  |  |  |  |  |  |  | preference for LAETG over LPETG ([3]; ratio of kcat/KM): 85 fold; activity level for LAETG ([3]; reversion of V182): lowers the activity level for LAETG
5 | B5 | 0.09356 | 11700 | 73.05 | 1.901 | 3250 |  |  |  |  |  | Avg kcat (Hz) ([3]; Example 5 variants, substrate 2A (LAETG)): 1.988 Hz; Km ([3]; Example 5 variants, substrate 2A (LAETG), read-out: Avg KM): 3720 µM; increase in kcat/Km for LAETG as compared to LPETG [3]: ~40 fold; preference for LAETG over LPETG ([3]; ratio of kcat/KM): 73 fold; Specificity (relative catalytic efficiency, fold) ([3]; ratio of kcat/KM between 2A (LAETG) and wt (LPETG)): 55.11 fold; Avg kcat (Hz) ([1]; Example 5 variants, substrate wt (LPETG)): 0.0501 Hz; Km ([1]; Example 5 variants, substrate wt (LPETG), read-out: Avg KM): 5180 µM
6 | B6 |  |  |  | 0.6977 | 310 | 12.49 | 0.5359 | 642 | 1.81E+08 | 0.01048 | 
7 | B7 | 0.1375 | 4900 | 115.7 | 1.41 | 433 | 615.9 | 1.493 | 2810 | 5.29E+06 | 0.324 | increase in kcat/Km for LAETG as compared to LPETG [3]: ~125 fold; increased affinity (KM) for the LAETG substrate as compared to the LPETG substrate [3]: ~116 fold; KH ([3]; GGG concentration at which hydrolysis and transpeptidation rates are equal, unit not given): 731±235
8 | B8 | 0.07676 | 1980 | 61.61 | 0.8129 | 343 | 12.49 | 0.5359 | 642 | 1.91E+08 | 0.01048 | increased affinity (KM) for the LAETG substrate as compared to the LPETG substrate [3]: ~61 fold
